Assay results reported in PMC7699296, “Dual-Channel Stopped-Flow Apparatus for Simultaneous Fluorescence, Anisotropy, and FRET Kinetic Data Acquisition for Binary and Ternary Biological Complexes” (Biosensors, 2020).

Key:
Settings in all cases: both partners purified
[1] = biological target: T1, full-length Tata Binding Protein from Saccharomyces cerevisiae (Saccharomyces cerevisiae, UniProt P13393 1-240); experiment: stopped-flow fluorescence anisotropy kinetics (dual-channel, rF(t)); derived over the range 15 °C to 25 °C from the kon values: van't Hoff plot, and KD estimated with a dissociation rate constant cited from other work
T1 construct: also called yTBP; TBP; source: Escherichia coli, purified
T1 sequence (looked up): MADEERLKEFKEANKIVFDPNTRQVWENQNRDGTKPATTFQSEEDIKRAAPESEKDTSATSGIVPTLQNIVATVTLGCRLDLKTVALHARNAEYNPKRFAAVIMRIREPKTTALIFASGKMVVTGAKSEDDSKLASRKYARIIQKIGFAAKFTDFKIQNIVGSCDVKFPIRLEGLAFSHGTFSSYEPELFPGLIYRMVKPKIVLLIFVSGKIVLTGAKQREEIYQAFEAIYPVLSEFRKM

[2] = biological target: T1, full-length Tata Binding Protein from …; experiment: stopped-flow fluorescence anisotropy kinetics (dual-channel, rF(t)); 15 °C; preformed yTBP (220 nM)-AdMLP31ds*Flint (20 nM) in syringe 1, 850 nM TFIIA in syringe 2 (concentrations after mixing); 25 mM Tris, 100 mM KCl, 5 mM MgCl2, 1 mM CaCl2, 2 mM DTT; biphasic fit, kon from the fast eigenvalue
[3] = biological target: T1, full-length Tata Binding Protein from …; experiment: stopped-flow fluorescence anisotropy kinetics (dual-channel, rF(t)); 17 °C; preformed yTBP (220 nM)-AdMLP31ds*Flint (20 nM) in syringe 1, 850 nM TFIIA in syringe 2 (concentrations after mixing); 25 mM Tris, 100 mM KCl, 5 mM MgCl2, 1 mM CaCl2, 2 mM DTT; biphasic fit, kon from the fast eigenvalue
[4] = biological target: T1, full-length Tata Binding Protein from …; experiment: stopped-flow fluorescence anisotropy kinetics (dual-channel, rF(t)); 25 °C; preformed yTBP (220 nM)-AdMLP31ds*Flint (20 nM) in syringe 1, 850 nM TFIIA in syringe 2 (concentrations after mixing); 25 mM Tris, 100 mM KCl, 5 mM MgCl2, 1 mM CaCl2, 2 mM DTT; biphasic fit, kon from the fast eigenvalue

B1: yeast Transcription Factor II A (complex)
chain 1: MSNAEASRVYEIIVESVVNEVREDFENAGIDEQTLQDLKNIWQKKLTETKVTTFSWDNQFNEGNINGVQNDLNFNLATPGVNSSEFNIKEENTGNEGLILPNINSNNNIPHSGETNINTNTVEATNNSGATLNTNTSGNTNADVTSQPKIEVKPEIELTINNANITTVENIDDESEKKDDEEKEEDVEKTRKEKEQIEQVKLQAKKEKRSALLDTDEVGSELDDSDDDYLISEGEEDGPDENLMLCLYDKVTRTKARWKCSLKDGVVTINRNDYTFQKAQVEAEWV
chain 2: MAVPGYYELYRRSTIGNSLVDALDTLISDGRIEASLAMRVLETFDKVVAETLKDNTQSKLTVKGNLDTYGFCDDVWTFIVKNCQVTVEDSHRDASQNGSGDSQSVISVDKLRIVACNSKKSE
modifications: Construct and limits are not given; the full-length TOA1/TOA2 heterodimer is assumed. Species is inferred from the label yTFIIA and the S. cerevisiae TBP used with it.
Kd [1]: 2.1 to 6.6 nM
dH [1]: 19.6 ± 1.6 kcal/mol
kon [2]: 1.45e+06 M⁻¹ s⁻¹
kon [3]: 1.84e+06 M⁻¹ s⁻¹
kon [4]: 4.68e+06 M⁻¹ s⁻¹
